Reference: PMC6783867 (2019)

B1: 10th and 11th cadherin repeat domains of the Plutella xylostella cadherin (PxCR10–11), GST-tagged (domain or fragment)
chain: QAVDLKNEGCTADAGDCYSVYYRIVSDISESFKVDAEKNIISLTRELDRADGVRHIVTVAASNQPDATDNPTNVLTVTVFVREANPRPIFENEVYTAGISTMDSINRELFTVKATRTENLSIKYTIDPSSMVADTSLQSVQGSAFELDADSGVLTLKIKPTASMRGMFEFEVIATDTEQATDRAEVKVYIVSDNNRVSFLFQNQLTQVEQYRDFIAQTLSAGFKMACNIDEVIPSTDAGGSPVEGVTEVRAHFIRDNQPVTADVIEALRSDVELLTNIQRTLNTNLLVLTDFVTDISPSVTADAARVIIYLLGALSAALALALACLVLLAAYWFRTRALNRRLEA
B2: Bacillus thuringiensis insecticidal protein (Bt toxin) Cry2Ab30 (natural protein)
chain: MNSVLNSGRTTICDAYNVAAHDPFSFQHKSLDTVQKEWTEWKKNNHSLYLDPIVGTVASFLLKKVGSLVGKRILSELRNLIFPSGSTNLMQDILRETEKFLNQRLNTDTLARVNAELTGLQANVEEFNRQVDNFLNPNRNAVPLSITSSVNTMQQLFLNRLPQFQMQGYQLLLLPLFAQAANLHLSFIRDVILNADEWGISAATLRTYRDYLKNYTRDYSNYCINTYQSAFKGLNTRLHDMLEFRTYMFLNVFEYVSIWSLFKYQSLLVSSGANLYASGSGPQQTQSFTSQDWPFLYSLFQVNSNYVLNGFSGARLSNTFPNIVGLPGSTTTHALLAARVNYSGGISSGDIGASPFNQNFNCSTFLPPLLTPFVRSWLDSGSDREGVATVTNWQTESFETTLGLRSGAFTARGNSNYFPDYFIRNISGVPLVVRNEDLRRPLHYNEIRNIASPSGTPGGARAYMVSVHNRKNNIHAVHENGSMIHLAPNDYTGFTISPIHATQVNNQTRTFISEKFGNQGDSLRFEQNNTTARYTLRGNGNSYNLYLRVSSIGNSTIRVTINGRVYTATNVNTTTNNDGVNDNGARFSDINIGNVVASSNSDVPLDINVTLNSGTQFDLMNIMLVPTNISPLY

What was measured:
[1] = target: Cry2Ab–AVM bioconjugate (Cry2Ab30 conjugated with 4''-O-succinyl avermectin) (Bacillus thuringiensis, 4''-O-succinyl avermectin joined by an amide bond to amino groups of Cry2Ab30; sites and number not determined (Lys 232 named as potential site from a homology model)); assay: BLI
[2] = target: B1; assay: BLI

Row | Binder | koff [1] [s⁻¹] | koff [2] [s⁻¹]
1 | B1 | 0.000569 | 
2 | B2 |  | 0.000567
